Experiments:
[1] = target: T1, human ADAM17 on tumour cells (A431, MCF-7, NCI-H1299) (human, UniProt P78536 215-824); experiment: binding to NCI-H1299 tumour cells, read as MFI against antibody concentration (Log [M])
T1 construct: Endogenous ADAM17 on human tumour cell lines; also called cellular form of ADAM17

[2] = target: T1, human ADAM17 on tumour cells (A431, …); experiment: cell-based or functional assay
[3] = target: ADAM17 fragments and chimeric constructs giving the positive response (BIAcore); experiment: SPR Biacore X100, about 700 RU m1022C3 captured, construct at 250 nM for 3 min
[4] = target: M1-602H603-671 (p-c-d-mpd (Nter)-MPD (Cter)) murine/human chimeric ADAM17 human Fc fusion (murine; human) (UniProt Q9Z0F8); experiment: as above
[5] = target: M1-671 (p-c-d-mpd) murine ADAM17 human Fc fusion (murine) (UniProt Q9Z0F8); experiment: as above
[6] = target: T2, H475-563 (D) human ADAM17 human Fc fusion (human, UniProt P78536 475-563); experiment: as above
T2 construct: Expressed in HEK293 and purified on protein A; not shown: human Fc domain at the C-terminus
Procedure: (§1) The experiment was performed on a Biacore X100 device. The mAb 1022C3 is used as the ligand and the ADAM17 fragments and chimeric constructs are used as the analyte. The experiment is run at 10 μl/min at 25° C. on a rabbit anti-mouse polyclonal antibody (Mouse antibody capture kit, BR-1008-38, GE Healthcare) covalently linked to the matrix of both flowcells of a CM5 sensorchip (BR-1000-12) using the amine coupling kit (BR-1000-50, GE Healthcare), using the HBS-EP+ buffer (BR-1008-26, GE Healthcare) as the running buffer. This buffer is also used for the dilutions of the ligand and the analytes.

[7] = target: T3, H223-602 (C-D MPD (Nter)) human ADAM17 human Fc fusion (human, UniProt P78536 223-602); experiment: as above
T3 construct: Expressed in HEK293 and purified on protein A; not shown: human Fc domain at the C-terminus
Procedure: as §1

[8] = target: T4, H475-602 (D-MPD (Nter)) human ADAM17 human Fc fusion (human, UniProt P78536 475-602); experiment: as above
T4 construct: Expressed in HEK293 and purified on protein A; not shown: human Fc domain at the C-terminus
Procedure: as §1

[9] = target: T5, H603-671 (MPD (Cter)) human ADAM17 human Fc fusion (human, UniProt P78536 603-671); experiment: as above
T5 construct: Expressed in HEK293 and purified on protein A; not shown: human Fc domain at the C-terminus
Procedure: as §1

[10] = target: T6, H1-474 (P-C) human ADAM17 human Fc fusion (human, UniProt P78536 18-474); experiment: as above
T6 construct: Expressed in HEK293 and purified on protein A; not shown: human Fc domain at the C-terminus
Procedure: as §1

[11] = target: T7, H223-563 (C-D) human ADAM17 human Fc fusion (human, UniProt P78536 223-563); experiment: as above
T7 construct: Expressed in HEK293 and purified on protein A; not shown: human Fc domain at the C-terminus
Procedure: as §1

[12] = target: soluble ADAM17 (extracellular domain of ADAM-17) (human, UniProt P78536 215-671); experiment: SPR Biacore, antibody captured on rabbit anti-mouse IgG, soluble ADAM17 400 to 12.5 nM, 1:1 Langmuir model
Procedure: The antibody (ligand) was bound to the second flowcell of a Biacore CM5 sensor chip (GE Healthcare) activated on both flowcells with a Rabbit anti-Mouse (RAM) IgG (H+L) covalently linked to the carboxymethyldextran matrix. Soluble ADAM17 (analyte) at concentrations ranging from 400 to 12.5 nM obtained by a two fold dilution scheme (assuming a molecular weight of 52 kDa) was injected onto the surface at a flow rate of 30 μl/min in a 120 s pulse (association) plus an extra 180 s delay for the dissociation phase measurement. The RAM surface was regenerated using NaOH 30 mM, NaCl 150 mM and 10 mM Glycine, HCl pH 1.5 buffer solutions. Curves obtained at each concentration were double referenced by first subtracting the signal from the reference FC1 surface (RAM without any mouse anti-TACE mAb) followed by subtraction of the signal obtained from a running buffer injection (Biacore HBS-EP buffer).
Data were processed using BIAevaluation 3.1 software using the 1:1 Langmuir model. The suitability of the fit was measured by the values of the Refractive Index (RI) which have to tend to zero and the κ² value.

soluble ADAM17 (extracellular domain of ADAM-17), sequence (P78536 215-671): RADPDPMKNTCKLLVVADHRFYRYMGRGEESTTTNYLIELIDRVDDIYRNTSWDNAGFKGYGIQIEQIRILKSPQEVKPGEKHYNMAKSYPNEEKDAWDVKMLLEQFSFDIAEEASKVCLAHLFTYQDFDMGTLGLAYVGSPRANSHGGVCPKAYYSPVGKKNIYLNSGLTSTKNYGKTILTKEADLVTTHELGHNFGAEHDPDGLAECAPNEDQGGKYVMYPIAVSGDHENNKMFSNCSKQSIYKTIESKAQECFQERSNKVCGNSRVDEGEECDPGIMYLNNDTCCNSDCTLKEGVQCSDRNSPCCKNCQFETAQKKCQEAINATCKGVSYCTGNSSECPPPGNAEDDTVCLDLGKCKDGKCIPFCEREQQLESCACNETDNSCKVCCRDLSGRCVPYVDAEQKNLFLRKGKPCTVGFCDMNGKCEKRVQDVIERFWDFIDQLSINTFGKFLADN
T1 sequence (P78536 215-824 limits assumed): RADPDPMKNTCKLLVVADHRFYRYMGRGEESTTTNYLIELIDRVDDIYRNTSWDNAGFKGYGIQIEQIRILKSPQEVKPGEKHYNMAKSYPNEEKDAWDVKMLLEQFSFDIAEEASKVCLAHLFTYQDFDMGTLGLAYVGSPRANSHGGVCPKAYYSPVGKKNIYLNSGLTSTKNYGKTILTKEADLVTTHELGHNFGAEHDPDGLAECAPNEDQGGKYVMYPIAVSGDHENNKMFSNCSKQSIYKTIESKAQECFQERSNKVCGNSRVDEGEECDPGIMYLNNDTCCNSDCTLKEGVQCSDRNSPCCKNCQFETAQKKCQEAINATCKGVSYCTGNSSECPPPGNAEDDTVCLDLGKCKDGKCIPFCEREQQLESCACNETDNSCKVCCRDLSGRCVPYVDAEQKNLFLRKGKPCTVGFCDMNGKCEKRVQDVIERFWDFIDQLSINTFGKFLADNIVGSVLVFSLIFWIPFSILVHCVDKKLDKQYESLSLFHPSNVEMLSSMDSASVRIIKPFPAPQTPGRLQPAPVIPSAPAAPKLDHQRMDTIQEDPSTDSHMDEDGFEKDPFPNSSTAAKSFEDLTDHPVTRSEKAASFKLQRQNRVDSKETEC
T3 sequence (P78536 223-602): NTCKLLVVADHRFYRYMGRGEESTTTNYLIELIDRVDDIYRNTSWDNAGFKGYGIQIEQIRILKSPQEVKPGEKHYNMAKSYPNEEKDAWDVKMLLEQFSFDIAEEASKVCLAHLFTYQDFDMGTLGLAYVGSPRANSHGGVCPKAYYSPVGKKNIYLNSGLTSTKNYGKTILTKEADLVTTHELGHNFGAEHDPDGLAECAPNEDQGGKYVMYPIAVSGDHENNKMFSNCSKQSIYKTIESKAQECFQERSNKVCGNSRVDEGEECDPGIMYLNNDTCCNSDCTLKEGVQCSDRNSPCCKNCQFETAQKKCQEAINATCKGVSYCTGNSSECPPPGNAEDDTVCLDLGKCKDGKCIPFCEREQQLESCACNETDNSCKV
M1-602H603-671 (p-c-d-mpd (Nter)-MPD (Cter)) murine/human chimeric ADAM17 human Fc fusion (murine; human), sequence (Q9Z0F8 other isoform, or with tags, fused parts or gaps mutant limits assumed, form in doubt): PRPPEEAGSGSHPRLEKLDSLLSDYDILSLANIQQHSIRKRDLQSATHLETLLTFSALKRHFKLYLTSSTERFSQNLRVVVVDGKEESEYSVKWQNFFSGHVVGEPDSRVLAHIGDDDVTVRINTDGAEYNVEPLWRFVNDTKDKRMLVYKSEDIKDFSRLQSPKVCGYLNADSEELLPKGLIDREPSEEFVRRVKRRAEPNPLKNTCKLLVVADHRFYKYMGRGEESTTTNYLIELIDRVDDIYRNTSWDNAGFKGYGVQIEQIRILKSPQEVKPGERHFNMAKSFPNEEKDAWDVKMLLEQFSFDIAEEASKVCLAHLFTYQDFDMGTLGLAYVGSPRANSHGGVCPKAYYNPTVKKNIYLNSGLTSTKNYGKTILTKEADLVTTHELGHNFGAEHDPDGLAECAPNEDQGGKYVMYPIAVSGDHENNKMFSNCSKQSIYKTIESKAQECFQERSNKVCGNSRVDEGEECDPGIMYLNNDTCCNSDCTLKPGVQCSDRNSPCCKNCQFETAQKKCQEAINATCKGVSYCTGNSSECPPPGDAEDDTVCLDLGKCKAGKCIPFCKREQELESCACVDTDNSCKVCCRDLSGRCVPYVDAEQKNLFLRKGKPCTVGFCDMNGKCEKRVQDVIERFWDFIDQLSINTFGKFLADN
T6 sequence (P78536 18-474): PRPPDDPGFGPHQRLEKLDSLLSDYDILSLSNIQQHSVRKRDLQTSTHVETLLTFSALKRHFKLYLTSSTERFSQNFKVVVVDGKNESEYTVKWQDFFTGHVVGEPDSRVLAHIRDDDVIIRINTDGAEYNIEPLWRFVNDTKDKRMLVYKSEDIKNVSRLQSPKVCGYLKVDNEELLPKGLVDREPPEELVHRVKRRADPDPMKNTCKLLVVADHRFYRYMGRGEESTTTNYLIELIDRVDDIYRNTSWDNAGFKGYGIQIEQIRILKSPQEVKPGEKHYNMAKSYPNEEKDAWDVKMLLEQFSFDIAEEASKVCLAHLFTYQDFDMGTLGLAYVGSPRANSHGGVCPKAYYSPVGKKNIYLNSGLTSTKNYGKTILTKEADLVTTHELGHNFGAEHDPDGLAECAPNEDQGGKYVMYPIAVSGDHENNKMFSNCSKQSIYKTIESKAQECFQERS
T5 sequence (P78536 603-671): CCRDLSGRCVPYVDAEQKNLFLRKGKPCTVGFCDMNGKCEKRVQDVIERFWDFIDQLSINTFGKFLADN
T7 sequence (P78536 223-563): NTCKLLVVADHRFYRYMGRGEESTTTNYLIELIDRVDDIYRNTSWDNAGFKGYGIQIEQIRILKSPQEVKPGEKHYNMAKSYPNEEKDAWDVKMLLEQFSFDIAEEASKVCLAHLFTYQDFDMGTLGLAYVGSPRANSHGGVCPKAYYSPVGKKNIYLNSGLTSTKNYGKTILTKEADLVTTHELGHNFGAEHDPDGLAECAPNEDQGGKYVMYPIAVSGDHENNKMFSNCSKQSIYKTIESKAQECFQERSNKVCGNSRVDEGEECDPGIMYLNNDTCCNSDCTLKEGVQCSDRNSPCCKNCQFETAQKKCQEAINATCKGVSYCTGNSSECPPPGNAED
M1-671 (p-c-d-mpd) murine ADAM17 human Fc fusion (murine), sequence (Q9Z0F8 18-671 limits assumed, form in doubt): as the sequence (Q9Z0F8 other isoform, or with tags, fused parts or gaps mutant limits assumed, form in doubt) above, with D589N, R593P counted along it
T2 sequence (P78536 475-563): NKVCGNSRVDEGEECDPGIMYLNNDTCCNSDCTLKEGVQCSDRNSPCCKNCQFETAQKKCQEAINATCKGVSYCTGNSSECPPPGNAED
T4 sequence (P78536 475-602): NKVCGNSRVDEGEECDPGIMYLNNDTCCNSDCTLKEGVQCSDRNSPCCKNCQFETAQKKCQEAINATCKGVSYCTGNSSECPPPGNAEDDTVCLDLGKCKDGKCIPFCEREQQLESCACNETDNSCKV

Binder | binding result [1] | IC50 (nM), inhibition of AREG-Nluc shedding from A431 cells [2] | IC50 (nM), inhibition of HB-EGF-Nluc shedding from A431 cells [2] | IC50 (nM), inhibition of TGFα-Nluc shedding from A431 cells [2] | IC50 (nM), inhibition of TNFα-Nluc shedding from A431 cells [2] | IC50 (nM), mean over the four substrates shed from A431 cells [2] | response (RU) [3] | response (RU) [4] | response (RU) [5] | response (RU) [6] | response (RU) [7] | response (RU) [8] | response (RU) [9] | response (RU) [10] | response (RU) [11] | Kd [12] | koff [12] | kon [12]
enzymatically deglycosylated m1022C3 (antibody, V domains shown, also called enzymatically deglycosylated 1022C3) VH: QVTLKESGPGILQPSQTLSLTCSFSGFSLDTSGMGVSWIRQPSGKGLEWLAHIYWDDDKRYNPSLKSRLTISKDTSSNQVFLKITSLDTADTATYYCARRSHFGNYYYAMDYWGQGTSVTVTS VL: DVQMTQTTSSLSASLGDRVTISCRASQDISSYLNWYQQKPDGTFKLLIFYTSRLQSGVPSKYSGSGSGTDYSLTISNLEQEDIAAYFCQQGKTLPLTFGAGTKLELK | binds |  |  |  |  |  |  |  |  |  |  |  |  |  |  |  |  | 
m1022C3 (murine anti-ADAM17 monoclonal antibody 1022C3, hybridoma I-4686) (antibody, V domains shown, N-glycosylated asparagine in CDR-H1, Murine antibody from a hybridoma; also called mAb 1022C3; mAb m1022C3) VH: QVTLKESGPGILQPSQTLSLTCSFSGFSLNTSGMGVSWIRQPSGKGLEWLAHIYWDDDKRYNPSLKSRLTISKDTSSNQVFLKITSLDTADTATYYCARRSHFGNYYYAMDYWGQGTSVTVTS VL: DVQMTQTTSSLSASLGDRVTISCRASQDISSYLNWYQQKPDGTFKLLIFYTSRLQSGVPSKYSGSGSGTDYSLTISNLEQEDIAAYFCQQGKTLPLTFGAGTKLELK |  | 0.067 nM | 0.062 nM | 0.093 nM | 0.054 nM | 0.069 nM | 90 to 140 RU | < 10 RU | < 10 RU | < 10 RU | < 10 RU | < 10 RU | < 10 RU | < 10 RU | < 10 RU | 1.27 nM | 0.00036 s⁻¹ | 284000 M⁻¹ s⁻¹
